Measurements from the Immune Epitope Database (IEDB).

Columns and labels:
HLA-A*01:01 [1] = assay: IEDB peptide-MHC binding, purified MHC/direct/fluorescence; filed as Kd, often an IC50 or EC50 that approximates it; ≥ and ≤ were set here for values at or beyond the usual limits of such assays
HLA-A*02:01 = assay: as above
HLA-B*58:01 = assay: as above
HLA-B*07:02 = assay: as above
HLA-B*44:02 = assay: as above
HLA-A*03:01 = assay: as above
HLA-A*24:02 = assay: as above
HLA-B*15:01 [2] = assay: as above
HLA-B*40:01 = assay: as above
HLA-A*11:01 [3] = assay: as above
HLA-A*69:01 = assay: as above
HLA-B*27:05 [4] = assay: as above
HLA-B*27:05 [5] = assay: IEDB peptide-MHC binding, purified MHC/competitive/fluorescence; filed as Kd, often an IC50 or EC50 that approximates it; ≥ and ≤ were set here for values at or beyond the usual limits of such assays; conditions: source organism: Vibrio vulnificus YJ016
HLA-B*38:01 = assay: IEDB peptide-MHC binding, purified MHC/direct/fluorescence; filed as Kd, often an IC50 or EC50 that approximates it; ≥ and ≤ were set here for values at or beyond the usual limits of such assays; conditions: source organism: Mycobacterium tuberculosis str. Haarlem
HLA-B*18:01 [6] = assay: as above
HLA-B*51:01 = assay: as above; conditions: source organism: Mycobacterium tuberculosis
HLA-A*31:01 = assay: as above
HLA-B*08:02 = assay: as above
HLA-B*57:01 [7] = assay: as above; conditions: source organism: Mycobacterium tuberculosis
HLA-B*48:01 = assay: as above; conditions: source organism: Mycobacterium tuberculosis
HLA-A*30:01 [8] = assay: as above; conditions: source organism: Mycobacterium tuberculosis str. Haarlem
HLA-B*46:01 = assay: as above
HLA-B*39:01 = assay: as above; conditions: source organism: Mycobacterium tuberculosis str. Haarlem
HLA-A*02:06 [9] = assay: as above
HLA-B*15:17 [10] = assay: as above; conditions: source organism: Mycobacterium tuberculosis
HLA-A*01:01 [11] = assay: IEDB peptide-MHC binding, purified MHC/competitive/fluorescence; filed as Kd, often an IC50 or EC50 that approximates it; ≥ and ≤ were set here for values at or beyond the usual limits of such assays; conditions: source organism: Human immunodeficiency virus 1
HLA-B*18:01 [12] = assay: as above; conditions: source organism: Human immunodeficiency virus 1
HLA-B*57:01 [13] = assay: as above; conditions: source organism: Human immunodeficiency virus 1
HLA-A*30:01 [14] = assay: as above; conditions: source organism: Human immunodeficiency virus 1
HLA-A*26:02 = assay: as above; conditions: source organism: Human immunodeficiency virus 1
HLA-B*15:01 [15] = assay: as above; conditions: source organism: Human immunodeficiency virus 1
HLA-A*02:06 [16] = assay: as above; conditions: source organism: Human immunodeficiency virus 1
HLA-A*11:01 [17] = assay: as above; conditions: source organism: Human immunodeficiency virus 1
HLA-A*02:03 [18] = assay: as above; conditions: source organism: Human immunodeficiency virus 1
HLA-B*15:17 [19] = assay: as above; conditions: source organism: Human immunodeficiency virus 1
HLA-B*15:09 = assay: IEDB peptide-MHC binding, purified MHC/direct/fluorescence; filed as Kd, often an IC50 or EC50 that approximates it; ≥ and ≤ were set here for values at or beyond the usual limits of such assays; conditions: source organism: Vibrio cholerae V52
HLA-B*08:01 = assay: as above
HLA-A*02:16 = assay: as above; conditions: source organism: Influenza A virus(A/swine/Shandong/fNY/2003(H9N2))
HLA-A*02:12 = assay: as above; conditions: source organism: Influenza A virus(A/swine/Shandong/fNY/2003(H9N2))
HLA-A*02:11 = assay: as above; conditions: source organism: Influenza A virus(A/swine/Shandong/fNY/2003(H9N2))
HLA-A*02:19 = assay: as above; conditions: source organism: Influenza A virus(A/swine/Shandong/fNY/2003(H9N2))
HLA-A*02:03 [20] = assay: as above; conditions: source organism: Influenza A virus(A/swine/Shandong/fNY/2003(H9N2))
[21] = source organism: Vibrio parahaemolyticus
[22] = source organism: Mycobacterium tuberculosis
[23] = source organism: Mycobacterium tuberculosis str. Haarlem
[24] = source organism: Vibrio cholerae
[25] = source organism: Vibrio cholerae V52
[26] = source organism: Influenza A virus (A/Viet Nam/HN/2004(H5N1))
[27] = source organism: Influenza A virus (A/Puerto Rico/8/34/Mount Sinai(H1N1))

ISDPAFKVF
Kd (HLA-A*01:01 [1]; [21]): ≥ 20 µM
Kd (HLA-A*02:01; [21]): ≥ 20 µM
Kd (HLA-B*58:01; [21]): 0.0175 µM
Kd (HLA-B*07:02; [21]): ≥ 20 µM
Kd (HLA-B*44:02; [21]): ≥ 20 µM
Kd (HLA-A*03:01; [21]): ≥ 20 µM
Kd (HLA-A*24:02; [21]): ≥ 20 µM
Kd (HLA-B*15:01 [2]; [21]): 0.63 µM
Kd (HLA-B*40:01; [21]): ≥ 20 µM
Kd (HLA-A*11:01 [3]; [21]): ≥ 20 µM
Kd (HLA-A*69:01; [21]): ≥ 20 µM
Kd (HLA-B*27:05 [4]; [21]): ≥ 20 µM

QQYTDEAPY
Kd (HLA-B*27:05 [5]): ≥ 20 µM

RGRIGRTYL
Kd (HLA-A*01:01 [1]; [22]): ≥ 20 µM
Kd (HLA-A*02:01; [22]): ≥ 20 µM
Kd (HLA-B*38:01): ≥ 20 µM
Kd (HLA-B*58:01; [22]): ≥ 20 µM
Kd (HLA-B*07:02; [22]): 0.003 µM
Kd (HLA-B*18:01 [6]; [22]): ≥ 20 µM
Kd (HLA-B*51:01): ≥ 20 µM
Kd (HLA-A*03:01; [22]): ≥ 20 µM
Kd (HLA-A*31:01; [22]): ≥ 20 µM
Kd (HLA-B*08:02; [23]): ≥ 20 µM
Kd (HLA-B*57:01 [7]): ≥ 20 µM
Kd (HLA-B*48:01): 3.04 µM
Kd (HLA-A*30:01 [8]): 0.023 µM
Kd (HLA-B*15:01 [2]; [22]): ≥ 20 µM
Kd (HLA-B*40:01; [22]): ≥ 20 µM
Kd (HLA-B*46:01; [22]): ≥ 20 µM
Kd (HLA-B*39:01): ≥ 20 µM
Kd (HLA-A*02:06 [9]; [23]): ≥ 20 µM
Kd (HLA-A*11:01 [3]; [22]): ≥ 20 µM
Kd (HLA-A*69:01; [22]): ≥ 20 µM
Kd (HLA-B*15:17 [10]): 0.0687 µM

RSLFNTIATLY
Kd (HLA-A*01:01 [11]): 1.25 µM
Kd (HLA-B*18:01 [12]): 0.0886 µM
Kd (HLA-B*57:01 [13]): 0.146 µM
Kd (HLA-A*30:01 [14]): ≥ 20 µM
Kd (HLA-A*26:02): 2.15 µM
Kd (HLA-B*15:01 [15]): 0.711 µM
Kd (HLA-A*02:06 [16]): 0.203 µM
Kd (HLA-A*11:01 [17]): 0.255 µM
Kd (HLA-A*02:03 [18]): 0.728 µM
Kd (HLA-B*15:17 [19]): 0.003 µM

RVHGATVFK
Kd (HLA-A*01:01 [1]; [24]): ≥ 20 µM
Kd (HLA-A*02:01; [24]): ≥ 20 µM
Kd (HLA-B*58:01; [24]): ≥ 20 µM
Kd (HLA-B*07:02; [24]): ≥ 20 µM
Kd (HLA-B*18:01 [6]; [24]): ≥ 20 µM
Kd (HLA-B*44:02; [24]): ≥ 20 µM
Kd (HLA-B*15:09): ≥ 20 µM
Kd (HLA-A*03:01; [24]): 0.249 µM
Kd (HLA-A*31:01; [24]): 0.0595 µM
Kd (HLA-B*08:01; [25]): ≥ 20 µM
Kd (HLA-B*08:02; [25]): ≥ 20 µM
Kd (HLA-A*24:02; [24]): ≥ 20 µM
Kd (HLA-B*15:01 [2]; [24]): ≥ 20 µM
Kd (HLA-B*40:01; [24]): ≥ 20 µM
Kd (HLA-A*11:01 [3]; [24]): 0.0472 µM
Kd (HLA-A*69:01; [24]): ≥ 20 µM
Kd (HLA-B*27:05 [4]; [24]): ≥ 20 µM

VSPLAVTWW
Kd (HLA-A*01:01 [1]; [26]): ≥ 20 µM
Kd (HLA-A*02:01; [27]): 1.08 µM
Kd (HLA-B*07:02; [26]): ≥ 20 µM
Kd (HLA-B*44:02; [26]): ≥ 20 µM
Kd (HLA-A*03:01; [27]): 0.173 µM
Kd (HLA-A*02:16): 0.131 µM
Kd (HLA-B*08:01; [26]): ≥ 20 µM
Kd (HLA-A*24:02; [26]): ≥ 20 µM
Kd (HLA-A*02:12): 3.54 µM
Kd (HLA-A*02:11): 0.032 µM
Kd (HLA-B*15:01 [2]; [27]): 2.2 µM
Kd (HLA-B*40:01; [26]): ≥ 20 µM
Kd (HLA-B*46:01; [26]): ≥ 20 µM
Kd (HLA-A*02:19): ≥ 20 µM
Kd (HLA-A*02:06 [9]; source organism: Influenza A virus(A/swine/Shandong/fNY/2003(H9N2))): ≥ 20 µM
Kd (HLA-A*02:03 [20]): 0.029 µM
Kd (HLA-A*69:01; [26]): ≥ 20 µM
Kd (HLA-B*27:05 [4]; [27]): 0.161 µM
